The values that follow come from PMC3154542 (Growth Factors (Chur, Switzerland), 2011).

The chains are these.
B1: BMPRII (BMP receptor 2 extracellular domain linked to the human IgG Fc region) (Fc fusion, UniProt Q13873 27-150, looked up)
chain: SQNQERLCAFKDPYQQDLGIGESRISHENGTILCSKGSTCYGLWEKSKGDINLVKQGCWSHIGDPQECHYEECVVTTTPPSIQNGTYRFCCCSTDLCNVNFTENFPPPDTTPLSPPHSFNRDET
notes: BMP receptor type 2 (BMPR2, BMPRII), type II receptor, extracellular domain; printed as 'BMPRII' without '-Fc' in the list of Fc fusion proteins; also called BMPR2; BMPR-2; source: synthesized in-house
B2: recombinant human bone morphogenetic protein 2 (rhBMP2) (ligand, UniProt P12643 283-396, looked up)
chain: QAKHKQRKRLKSSCKRHPLYVDFSDVGWNDWIVAPPGYHAFYCHGECPFPLADHLNSTNHAIVQTLVNSVNSKIPKACCVPTELSAISMLYLDENEKVVLKNYQDMVVEGCGCR
notes: bone morphogenetic protein 2, human, mature domain; homodimer by non-reducing SDS-PAGE; source: CHO cells, purified (as in Wang et al. 1990)
B4: recombinant human bone morphogenetic protein 13 (rhBMP13) (ligand, UniProt Q6KF10 336-455, looked up)
chain: TAFASRHGKRHGKKSRLRCSKKPLHVNFKELGWDDWIIAPLEYEAYHCEGVCDFPLRSHLEPTNHAIIQTLMNSMDPGSTPPSCCVPTKLTPISILYIDAGNNVVYKQYEDMVVESCGCR
notes: bone morphogenetic protein 13 (BMP13, also known as GDF6), human, mature form; homodimer by non-reducing SDS-PAGE
B6: recombinant human bone morphogenetic protein 12 (rhBMP12) (ligand, UniProt Q7Z4P5 322-450, looked up)
chain: TALAGTRTAQGSGGGAGRGHGRRGRSRCSRKPLHVDFKELGWDDWIIAPLDYEAYHCEGLCDFPLRSHLEPTNHAIIQTLLNSMAPDAAPASCCVPARLSPISILYIDAANNVVYKQYEDMVVEACGCR
notes: bone morphogenetic protein 12 (BMP12, also known as GDF7), human, mature form; homodimer by non-reducing SDS-PAGE

The target in data set [1] is B6. The data set is described as follows: BLI; receptor extracellular domain-Fc chimeras immobilised on anti-human IgG Fc biosensor tips (ForteBio Octet RED); sixfold serial dilutions of human BMPs in solution; association 10 min, dissociation 30 min; global fit to a 1:1 Langmuir model. As to conditions: both partners purified. (Biolayer interferometry detects binding as a change in optical thickness at a sensor tip.)

Data set [2] deals with the molecule itself. The data set is described as follows: non-reducing SDS-PAGE; purified proteins on 12% polyacrylamide gels under non-reducing against reducing (β-mercaptoethanol) conditions, Coomassie blue staining.
For data set [3], the target named is B4. Nature of the data set: BLI; receptor extracellular domain-Fc chimeras immobilised on anti-human IgG Fc biosensor tips (ForteBio Octet RED); sixfold serial dilutions of human BMPs in solution; association 10 min, dissociation 30 min; global fit to a 1:1 Langmuir model. As to conditions: both partners purified.
Data set [4] concerns the target T1, ALK3-Fc (activin receptor-like kinase 3 extracellular domain linked to the human IgG Fc region) (UniProt P36894 24-152).
T1 construct: activin receptor-like kinase 3 (ALK3), type I BMP receptor, extracellular domain; source: bought: R&D Systems
The data set is described as above. As to conditions: both partners purified.

The target of data set [5] is B1. The data set is described as above. The note with it: both partners purified.
Data set [6] addresses B2. The data set is described as above. The note with it: both partners purified.

T1 sequence (P36894 24-152): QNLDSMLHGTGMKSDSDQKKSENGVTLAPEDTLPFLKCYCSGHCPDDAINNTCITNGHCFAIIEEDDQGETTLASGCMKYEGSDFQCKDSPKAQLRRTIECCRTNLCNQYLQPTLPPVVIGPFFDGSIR

As to B1, in data set [1], the dissociation constant (Kd) worked out at 52.1 nM, the off-rate (koff) stood at 0.322 s⁻¹ and the kon was 9.26e+06 M⁻¹ s⁻¹.
Regarding B2, the “stoichiometry N” value in data set [2] was 2.

B3: ACVR2B-Fc (activin receptor type-2B extracellular domain linked to the human IgG Fc region) (Fc fusion, UniProt Q13705 19-137, looked up)
chain: SGRGEAETRECIYYNANWELERTNQSGLERCEGEQDKRLHCYASWRNSSGTIELVKKGCWLDDFNCYDRQECVATEENPQVYFCCCEGNFCNERFTHLPEAGGPEVTYEPPPTAPTLLT
notes: activin receptor type-2B (ACVR2B), type II receptor, extracellular domain; source: synthesized in-house
Turning to B3, in data set [1], the dissociation constant (Kd) worked out at 1 nM, the off-rate (koff) is 0.0138 s⁻¹ and the kon worked out at 1.29e+07 M⁻¹ s⁻¹. Moreover, in data set [3], the Kd is 1.6 nM, the koff worked out at 0.0041 s⁻¹ and the on-rate constant (kon) turned out to be 2.59e+06 M⁻¹ s⁻¹.
B4: in data set [4], the equilibrium dissociation constant (Kd) came to 1.7 nM, the koff came to 0.0084 s⁻¹ and the kon was 4.97e+06 M⁻¹ s⁻¹. In data set [5], this molecule registered a Kd of 28.1 nM, a koff of 0.16 s⁻¹ and a kon of 5.7e+06 M⁻¹ s⁻¹. In addition, the “stoichiometry N” value in data set [2] amounted to 2.

B5: ALK6-Fc (activin receptor-like kinase 6 extracellular domain linked to the human IgG Fc region) (Fc fusion, UniProt O00238 14-126, looked up)
chain: KKEDGESTAPTPRPKVLRCKCHHHCPEDSVNNICSTDGYCFTMIEEDDSGLPVVTSGCLGLEGSDFQCRDTPIPHQRRSIECCTERNECNKDLHPTLPPLKNRDFVDGPIHHR
notes: activin receptor-like kinase 6 (ALK6), type I BMP receptor, extracellular domain; source: synthesized in-house
In the case of B5, in data set [1], the dissociation constant (Kd) amounted to 0.6 nM, the koff amounted to 0.004 s⁻¹ and the kon stood at 6.48e+06 M⁻¹ s⁻¹. For the same molecule, in data set [6], the Kd is 1.6 nM, the koff came out at 0.0064 s⁻¹ and the on-rate constant (kon) turned out to be 4.28e+06 M⁻¹ s⁻¹. In addition, in data set [3], the Kd came to 0.5 nM, the koff came out at 0.0038 s⁻¹ and the kon stood at 7.69e+06 M⁻¹ s⁻¹.
Consider B6, for which, in data set [4], binding was characterised by a dissociation constant (Kd) of 3.4 nM, the off-rate constant (koff) amounted to 0.0164 s⁻¹ and the on-rate (kon) worked out at 5.07e+06 M⁻¹ s⁻¹. Also, in data set [2], the “stoichiometry N” value turned out to be 2.

As usually defined, the Kd is a measure of binding affinity in units of concentration. In general, koff refers to a measure of how fast the partners let go of each other. Broadly, the kon is a measure of how fast the partners come together. The stoichiometry N is the number of molecules, sites or subunits per partner or assembly.
